B1: TRIM43 (parent)
chain: NRFRVEISFHFEVTNHNIRLFEDV

Variants of: B1
Test: protein stability index of a GFP-peptide fusion (GPS, HEK-293T) (PSI 1-6); higher = more stable
Conditions: c terminus: a fixed tail appended
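Also: lentivirally expressed fusions sorted by FACS into six bins by GFP to DsRed ratio, PSI derived from sequencing read proportions per bin multiplied by bin number.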

Variant	protein stability index
NRFRVEISFHFEVTNANIRLFEDV [H16A]	3.14
NRFRVEISFHFEDTNHNIRLFEDV [V13D]	1.93
NRFRVEISFHFEHTNHNIRLFEDV [V13H]	2.26
NRFRVEISFHFEETNHNIRLFEDV [V13E]	4.46
NRFRVEISFHFEPTNHNIRLFEDV [V13P]	4.3
NRFRVEISFHFEMTNHNIRLFEDV [V13M]	2.35
NRFRGEISFHFEVTNHNIRLFEDV [V5G]	2.86
NRFRKEISFHFEVTNHNIRLFEDV [V5K]	3.27
NRFRNEISFHFEVTNHNIRLFEDV [V5N]	2.11
NRFRSEISFHFEVTNHNIRLFEDV [V5S]	2.08
NRFRPEISFHFEVTNHNIRLFEDV [V5P]	2.8
NRFRDEISFHFEVTNHNIRLFEDV [V5D]	2.08
NRFRFEISFHFEVTNHNIRLFEDV [V5F]	2.78
NRFRWEISFHFEVTNHNIRLFEDV [V5W]	2.53
NRFRTEISFHFEVTNHNIRLFEDV [V5T]	3.37
NRFREEISFHFEVTNHNIRLFEDV [V5E]	1.46
NRFRQEISFHFEVTNHNIRLFEDV [V5Q]	1.79
NRFRREISFHFEVTNHNIRLFEDV [V5R]	1.5
NRFRVEISFHSEVTNHNIRLFEDV [F11S]	2.74
NRFRVEISFHQEVTNHNIRLFEDV [F11Q]	2.38
NRFRVEISFHEEVTNHNIRLFEDV [F11E]	1.03
NRFRVEISFHIEVTNHNIRLFEDV [F11I]	2.83
NRFRVEISFHTEVTNHNIRLFEDV [F11T]	2.44
NRFRVEISFHPEVTNHNIRLFEDV [F11P]	1.58

Variant	protein stability index
NRFRVEISFHKEVTNHNIRLFEDV [F11K]	1.46
NRFRVEISFHDEVTNHNIRLFEDV [F11D]	1.27
NRFRVEISFPFEVTNHNIRLFEDV [H10P]	3.64
NRFRVEISFSFEVTNHNIRLFEDV [H10S]	3.4
NRFRVEISFNFEVTNHNIRLFEDV [H10N]	2.63
NRFRVEISFEFEVTNHNIRLFEDV [H10E]	2.98
NRFRVEISFQFEVTNHNIRLFEDV [H10Q]	4.08
NRFRVEISDHFEVTNHNIRLFEDV [F9D]	2.27
NRFRVEISAHFEVTNHNIRLFEDV [F9A]	2.87
NRFRVEISQHFEVTNHNIRLFEDV [F9Q]	1.28
NRFRVEISPHFEVTNHNIRLFEDV [F9P]	2.08
NRFRVEISTHFEVTNHNIRLFEDV [F9T]	2.01
NRFRVEISGHFEVTNHNIRLFEDV [F9G]	2
NRFRVEISEHFEVTNHNIRLFEDV [F9E]	1.95
NRFRVEISRHFEVTNHNIRLFEDV [F9R]	1.76
NRFRVEISHHFEVTNHNIRLFEDV [F9H]	1.09
NRFRVEISKHFEVTNHNIRLFEDV [F9K]	1.85
NRFRVEISNHFEVTNHNIRLFEDV [F9N]	2.22
NRFRVEISSHFEVTNHNIRLFEDV [F9S]	1.91
NRFRVEISFHFEVYNHNIRLFEDV [T14Y]	3.83
NRFRVEISFHFEVLNHNIRLFEDV [T14L]	2.29
NRFRVEISFHFEVENHNIRLFEDV [T14E]	2.04
NRFRVEISFHFEVHNHNIRLFEDV [T14H]	3.49
NRFRVEISFHFEVNNHNIRLFEDV [T14N]	3.31

Variant	protein stability index
NRFRVEISFHFNVTNHNIRLFEDV [E12N]	1.39
NRFRVEISFHFIVTNHNIRLFEDV [E12I]	1.68
NRFRVEISFHFYVTNHNIRLFEDV [E12Y]	2.51
NRFRVEISFHFAVTNHNIRLFEDV [E12A]	2.58
NRFRVEISFHFLVTNHNIRLFEDV [E12L]	2.91
NRFRVEISFHFWVTNHNIRLFEDV [E12W]	2.64
NRFRVEIGFHFEVTNHNIRLFEDV [S8G]	2.38
NRFRVEILFHFEVTNHNIRLFEDV [S8L]	3.72
NRFRVEIRFHFEVTNHNIRLFEDV [S8R]	2.43
NRFRVEIMFHFEVTNHNIRLFEDV [S8M]	2.39
NRFRVEIPFHFEVTNHNIRLFEDV [S8P]	2.36
NRFRVEICFHFEVTNHNIRLFEDV [S8C]	2.02
NRFRVEISFHFEVTTHNIRLFEDV [N15T]	1.49
NRFRVEISFHFEVTYHNIRLFEDV [N15Y]	3.23
NRFRVEISFHFEVTPHNIRLFEDV [N15P]	3.72
NRFRVEISFHFEVTCHNIRLFEDV [N15C]	3.41
NRFRVEISFHFEVTDHNIRLFEDV [N15D]	2.5
NRFRVEISFHFEVTGHNIRLFEDV [N15G]	2.28
NRFRVEISFHFEVTMHNIRLFEDV [N15M]	2.49
NRFRVEISFHFEVTWHNIRLFEDV [N15W]	3.34
NRFRVEISFHFEVTLHNIRLFEDV [N15L]	3.22
NRFRVEISFHFEVTEHNIRLFEDV [N15E]	2.92
NRFRVEISFHFEVTVHNIRLFEDV [N15V]	2.13
NRFRVEISFHFEVTSHNIRLFEDV [N15S]	2.18

Variant	protein stability index
NRFRVEISFHFEVTFHNIRLFEDV [N15F]	3.62
NRFRVENSFHFEVTNHNIRLFEDV [I7N]	2.06
NRFRVEESFHFEVTNHNIRLFEDV [I7E]	1.91
NRFRVEKSFHFEVTNHNIRLFEDV [I7K]	2.12
NRFRVEGSFHFEVTNHNIRLFEDV [I7G]	2.43
NRFRVEYSFHFEVTNHNIRLFEDV [I7Y]	3.41
NRFRVERSFHFEVTNHNIRLFEDV [I7R]	2.85
NRFRVETSFHFEVTNHNIRLFEDV [I7T]	1.68
NRFRVEDSFHFEVTNHNIRLFEDV [I7D]	2.44
NRFRVEPSFHFEVTNHNIRLFEDV [I7P]	1.81
NRFRVEFSFHFEVTNHNIRLFEDV [I7F]	3.57
NRFRVGISFHFEVTNHNIRLFEDV [E6G]	2.02
NRFRVHISFHFEVTNHNIRLFEDV [E6H]	4.48
NRFRVLISFHFEVTNHNIRLFEDV [E6L]	2.03
NRFRVTISFHFEVTNHNIRLFEDV [E6T]	4.38
NRFRVSISFHFEVTNHNIRLFEDV [E6S]	3.18
NRFRVAISFHFEVTNHNIRLFEDV [E6A]	2.86
NRFRVMISFHFEVTNHNIRLFEDV [E6M]	2.64
NRFRVVISFHFEVTNHNIRLFEDV [E6V]	3.86
NRFRVKISFHFEVTNHNIRLFEDV [E6K]	3.25
NRFRVDISFHFEVTNHNIRLFEDV [E6D]	2.34
NRFRVPISFHFEVTNHNIRLFEDV [E6P]	2.27
